# PMC4742278, “BS69/ZMYND11 C-Terminal Domains Bind and Inhibit EBNA2” (PLoS Pathogens, 2016)
# Assays:
# EBNA2 [1] = assay: Confocal immunofluorescence of EBNA2 and BS69 in EBV-infected B cells; format: cell-based, Epstein-Barr virus; settings: EBV infected B cells at 1 and 3 dpi
# Method: 5x10^4/per 100 μl primary B cells were cultured in RPMI 1640 supplemented with 15% fetal calf serum (FCS), 2 mM L-glutamine, and penicillin/streptomycin, and aliquoted into a 96-well plate. 100 μL previously purified EBV [52] or PBS (mock infection) was utilized as the inoculum. Cells were collected at 0, 1, 3, 5, and 7 days of post-infection (dpi) and BS69 mRNA expression in virus or mock -infected B cells were determined as the relative expression levels versus GAPDH by quantitative reverse transcription real time PCR (qRT-PCR). For Western blot analysis, a total of 5x10^5 B cells with EBV infection were collected at 0, 1, 4, and 7 dpi, respectively. The primers for BS69 are […] (F) and […] (R), whereas the primers for GAPDH internal control are […] (F) and […] (R). The primers for chromatin immunoprecipitati on assays of the LMP1 promoter and GAPDH promoter control have been described previously. The amount of ChIPed DNA was quantified by real time PCR and represented as % of input DNA. For Immunofluorescence analysis (IFA), cells were fixed in 2% paraformaldehyde (Sigma) and subjected to an immunostaining protocol using antibodies for BS69 (Santa Cruz), and EBNA2 (Santa Cruz). […]
# cancer cell growth = settings: in vitro and in vivo; cited from earlier work
# Description: BS69 (ZMYND11) is an emerging tumor suppressor [19–21] that was originally identified as the Adenovirus protein E1A and EBNA2-interacting protein [22, 23]. […] BS69 contains, in addition to a C-terminal MYND (MYeloid translocation protein 8, Nervy and DEAF-1) domain, an N-terminal Plant Homo Domain (PHD) zinc finger, a Bromo domain and a PWWP domain.
# [2] = tested on: EBNA1-mediated transcriptional activation of OriP-Luc reporter; assay: OriP-Luc reporter assay (EBNA1-mediated transcription); format: cell-based, Epstein-Barr virus; settings: 10 μg EBNA1 expression plasmid, 5 μg OriP-Luc reporter
# Description: (§1) Cell culture and reporter gene assays for EBNA2-mediated transcription activation
# (§2) The BS69CC-MYND dual domain, wild-type or the Q546A mutant, were inserted into a pCBS/FLAG mammalian expression vector [54], in which the BS69 fragments are preceded by a FLAG-tag. In the case of the Q546A/W550A BS69CC-MYND expression plasmid, the flanking DNA fragment was subcloned into the pSG5-Flag vector [55]. The EBNA2 expression vector harboring PXLXP1 or PXLXP2 mutations was generated by carrying out the PCR-based mutagenesis protocol provided by the manufactory (Stratagene). In each case, the codons of two prolines were replaced with the codons of alanine simultaneously. For EBNA2-dependent transcription reporter assays, 10 μg of the expression vector of EBNA2 (E2), 5 μg flag-BS69CC- MYND wild type, or Q546A plasmid, and 5 μg LMP1-Luc or Cp-Luc reporter plasmid, and 1 μg CMV-βGal control plasmid were co-transfected into BJAB cells following the protocol as described previously. For the parallel control, 10 μg EBNA1 expression plasmid and 5 μg OriP-Luc reporter plasmid were used instead. Luciferase and β-Gal activities were assayed by Orion L (Berthold). A DNA fragment encoding residues 375–465 of EBNA2 from EBV W91 strain [49] containing CR7 and CR8 of EBNA2 were inserted into pCD-Gal4(1–147) vector to generate pCD-Gal4-EBNA2(375–465), which encodes a GAL4-EBNA2 fusion protein. […]
# EBNA2 [3] = assay: Co-immunoprecipitation of EBNA2 with flag-BS69CC-MYND in BJAB cells; format: cell-based, Epstein-Barr virus; settings: anti-flag M2 IP, Western blot
# Description: To address whether the BS69 C-terminal domain, if expressed, interacts with EBNA2 in vivo, we ectopically co-expressed flag-tagged wild-type, Q546A, or Q546A/W550A BS69CC-MYND with EBNA2 in BJAB cells, followed by immunoprecipitation using anti-flag M2-conjugated sepharose and Western blotting with antibodies against EBNA2 and M2, respectively. […] In addition, the immunofluorescence (IF) image pointed to a reduction of large amount of BS69 expression in EBV infected B cells at 5 dpi, confirming the barely low expression levels of BS69 shown in Fig 4B.
# Co-immunoprecipitation, chromatin immunoprecipitation (ChIP), and western blot analyses
# The transfection-mediated co-immunoprecipitation (Co-IP) assay was employed to identify the physical interaction of EBNA2 with BS69CC-MYND using EBV-negative B lymphoma cells (BJAB). Cells were co-transfected with the expression plasmids of EBNA2 (E2) and flag- BS69CC-MYND wild type, Q546A mutant (Q546A), or Q546A/W550A mutant (Q546A/W550A) and subjected to IP analysis using M2-conjugated sepharose (Sigma). […] The proteins were detected and visualized using an ECL detection kit (Millipore). […] The protein levels of endogenous BS69 in the obtained cell lines were determined by Western blot using BS69 antibody (Santa Cruz biotechnology). […] The proteins were detected and visualized using an ECL detection kit (Millipore).
# [4] = tested on: Cp-Luc reporter, EBNA2-mediated transcriptional activation; assay: Cp-Luc reporter assay (EBNA2-mediated transcription) in BJAB cells; format: cell-based, Epstein-Barr virus; settings: 10 μg EBNA2 vector, 5 μg flag-BS69CC-MYND plasmid, 5 μg reporter
# Description: as §1, §2
# [5] = tested on: LMP1-Luc reporter, EBNA2-mediated transcriptional activation; assay: LMP1-Luc reporter assay (EBNA2-mediated transcription) in BJAB cells; format: cell-based, Epstein-Barr virus; settings: 10 μg EBNA2 vector, 5 μg flag-BS69CC-MYND plasmid, 5 μg reporter
# Description: as §1, §2
# LMP1-DNA (LMP1 promoter) = assay: ChIP at LMP1 promoter DNA in transfected BJAB cells; format: cell-based, Epstein-Barr virus; settings: M2 ChIP
# Description: To determine whether BS69CC-MYND is able to associate with EBNA2 target promoters through protein-protein interactions, we performed Chromatin Immunoprecipitation (ChIP) assays using BJAB cells, in which flag-tagged wild-type, Q546A, or […] BS69CC-MYND was co-transfected with or without EBNA2 expression vector and a reporter plasmid containing the LMP1 promoter, LMP1-Luc. […] On the other hand, an EBNA2 ChIP brought down ~13% of LMP1-DNA, consistent with the fact that LMP1 is one of the target sites of EBNA2 [35, 36].
# 5x10^4/per 100 μl primary B cells were cultured in RPMI 1640 supplemented with 15% fetal calf serum (FCS), 2 mM L-glutamine, and penicillin/streptomycin, and aliquoted into a 96-well plate. […] Cells were collected at 0, 1, 3, 5, and 7 days of post-infection (dpi) and BS69 mRNA expression in virus or mock -infected B cells were determined as the relative expression levels versus GAPDH by quantitative reverse transcription real time PCR (qRT-PCR). […] The amount of ChIPed DNA was quantified by real time PCR and represented as % of input DNA. […]
# The transfection-mediated co-immunoprecipitation (Co-IP) assay was employed to identify the physical interaction of EBNA2 with BS69CC-MYND using EBV-negative B lymphoma cells (BJAB). […] The proteins were detected and visualized using an ECL detection kit (Millipore). […]
# [6] = tested on: G5-TK-Luc reporter, Gal4-EBNA2 transcriptional activation; assay: G5-TK-Luc reporter assay with Gal4-EBNA2 in HeLa cells; format: cell-based; settings: 10 ng BS69CC-MYND expression vector, relative to no Gal4 activator (set to 1), means of minimum 3 independent experiments each in triplicates
# Description: as §1
# The BS69CC-MYND dual domain, wild-type or the Q546A mutant, were inserted into a pCBS/FLAG mammalian expression vector [54], in which the BS69 fragments are preceded by a FLAG-tag. In the case of the Q546A/W550A BS69CC-MYND expression plasmid, the flanking DNA fragment was subcloned into the pSG5-Flag vector [55]. The EBNA2 expression vector harboring PXLXP1 or PXLXP2 mutations was generated by carrying out the PCR-based mutagenesis protocol provided by the manufactory (Stratagene). In each case, the codons of two prolines were replaced with the codons of alanine simultaneously. […]
# Supplementary file ppat.1005414.s003.tif: S3 Fig In vivo transcription assays of G5-TK-Luc reporter gene. (A) The expression of Flag-tagged wild-type or Q546A BS69CC-MYND in HeLa cells was analyzed by Western blotting using anti-flag M2 monoclonal antibody. […] (B) Relative transcription activation by GAL4 DBD, Gal4-EBNA2 and Gal4-VP16 was analyzed in transfected HeLa cells in the absence or presence of 10 ng expression vector for wild-type BS69CC-MYND or its Q546A mutant. […]
Molecule,colocalization of EBNA2 and BS69 (EBNA2 [1]),effect of BS69 overexpression on cancer cell growth (cancer cell growth),suppression of EBNA1-mediated transcriptional activation of OriP-Luc [2],EBNA2 co-precipitation (EBNA2 [3]),"relative transcriptional activation by EBNA2 in presence of BS69CC-MYND, Cp-Luc [4] [fold]","relative transcriptional activation by EBNA2 in presence of BS69CC-MYND, LMP1-Luc [5] [fold]",ChIPed LMP1-DNA (LMP1-DNA (LMP1 promoter); absence of EBNA2 (similar to IgG negative control)),"ChIPed LMP1-DNA (LMP1-DNA (LMP1 promoter); presence of EBNA2, % of input DNA)",activation of G5-TK-Luc by Gal4-EBNA2 in presence of BS69CC-MYND [6]
"BS69: emerging tumor suppressor, Adenovirus protein E1A and EBNA2-interacting protein (protein, UniProt Q15326 1-602, looked up) Zinc finger MYND …: MARLTKRRQADTKAIQHLWAAIEIIRNQKQIANIDRITKYMSRVHGMHPKETTRQLSLAVKDGLIVETLTVGCKGSKAGIEQEGYWLPGDEIDWETENHDWYCFECHLPGEVLICDLCFRVYHSKCLSDEFRLRDSSSPWQCPVCRSIKKKNTNKQEMGTYLRFIVSRMKERAIDLNKKGKDNKHPMYRRLVHSAVDVPTIQEKVNEGKYRSYEEFKADAQLLLHNTVIFYGADSEQADIARMLYKDTCHELDELQLCKNCFYLSNARPDNWFCYPCIPNHELVWAKMKGFGFWPAKVMQKEDNQVDVRFFGHHHQRAWIPSENIQDITVNIHRLHVKRSMGWKKACDELELHQRFLREGRFWKSKNEDRGEEEAESSISSTSNEQLKVTQEPRAKKGRRNQSVEPKKEEPEPETEAVSSSQEIPTMPQPIEKVSVSTQTKKLSASSPRMLHRSTQTTNDGVCQSMCHDKYTKIFNDFKDRMKSDHKRETERVVREALEKLRSEMEEEKRQAVNKAVANMQGEMDRKCKQVKEKCKEEFVEEIKKLATQHKQLISQTKKKQWCYNCEEEAMYHCCWNTSYCSIKCQQEHWHAEHKRTCRRKR",colocalization of EBNA2 and BS69 appeared,suppresses cancer cell growth both in vitro and in vivo,failed to suppress,,,,,,
"BS69CC-MYND: residues 440–562 of BS69/ZMYND11, tandem coiled-coil-MYND domains (protein, UniProt Q15326 440-562, looked up, fragment, coiled-coil-MYND domain FLAG tag, residues 440–562 of BS69/ZMYND11, tandem coiled-coil-MYND domains) TKKLSASSPRMLHRSTQTTNDGVCQSMCHDKYTKIFNDFKDRMKSDHKRETERVVREALEKLRSEMEEEKRQAVNKAVANMQGEMDRKCKQVKEKCKEEFVEEIKKLATQHKQLISQTKKKQW",,,,EBNA2 co-precipitates with wild-type flag-tagged BS69CC-MYND,≤ 2,≤ 2,7–8 % over input DNA,~ 17%,less than 4 fold
